The values that follow are results of earlier work, collected in article PMC12582428.

Data set [1] concerns the target Neuropeptide Y (Homo sapiens) (UniProt P01303).
For data set [2] the target is unchanged. The source holds these as a separate data set.

Read-outs that look alike come from different tables or passages of the source.

Neuropeptide Y receptor Y2, sequence (P49146 whole entry): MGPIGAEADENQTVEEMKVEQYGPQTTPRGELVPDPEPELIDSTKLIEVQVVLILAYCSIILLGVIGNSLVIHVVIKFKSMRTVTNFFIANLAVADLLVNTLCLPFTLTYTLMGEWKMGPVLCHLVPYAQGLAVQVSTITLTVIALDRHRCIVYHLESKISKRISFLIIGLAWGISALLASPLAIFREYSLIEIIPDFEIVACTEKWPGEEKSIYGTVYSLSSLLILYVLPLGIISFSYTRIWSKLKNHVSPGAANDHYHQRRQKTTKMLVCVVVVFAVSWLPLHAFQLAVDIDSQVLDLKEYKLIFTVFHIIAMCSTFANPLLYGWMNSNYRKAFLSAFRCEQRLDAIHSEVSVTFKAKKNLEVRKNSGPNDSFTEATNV
Neuropeptide Y receptor Y1, sequence (P25929 whole entry): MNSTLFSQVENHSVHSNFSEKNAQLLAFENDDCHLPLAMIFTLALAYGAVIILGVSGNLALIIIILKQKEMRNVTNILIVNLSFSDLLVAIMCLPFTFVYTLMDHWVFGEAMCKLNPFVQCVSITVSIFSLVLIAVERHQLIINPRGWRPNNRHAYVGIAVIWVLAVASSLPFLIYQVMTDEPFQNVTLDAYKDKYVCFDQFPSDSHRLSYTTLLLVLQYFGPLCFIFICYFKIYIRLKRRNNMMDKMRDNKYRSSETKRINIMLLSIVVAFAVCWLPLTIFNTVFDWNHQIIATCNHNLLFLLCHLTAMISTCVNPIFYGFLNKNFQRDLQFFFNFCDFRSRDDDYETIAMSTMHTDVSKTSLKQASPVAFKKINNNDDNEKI

As a reminder, the Kd is the equilibrium constant for the complex coming apart. On to “Neuropeptide Y receptor Y2 (from UniProt P49146)”, for which, in data set [1], the dissociation constant Kd was 0.12 nM.
Consider “Neuropeptide Y receptor Y1 (from UniProt P25929)”, for which, in data set [2], the dissociation constant (Kd) is 4 nM.
